Measurements published in PMC12243196, “Division of the large and multifunctional glycoside hydrolase family 2: high functional specificity and biochemical assays in the uncharacterized subfamilies” (Biotechnology for Biofuels and Bioproducts, 2025).
Read-outs that look alike come from different tables or passages of the source.

B1: (Ruminiclostridium cellobioparum subsp. termitidis CT1112) (protein)
chain: MNNRKQICLNGLWDFCPGNGTLDRIPRKWDKTQIKVPSPWNINTFAGPEKLTCGEEEIFLRGGEFNLYPEYPKAWENAQSGWYKTEMFIDEEWRGKVITLKFNAVLFYSEFYINGKLISTDADGFLPHEFPVQDHVKYGGSNTLVVGVKKLDAFRYKNEAGKNRIEYPTGSFWGKTMGGIWQDVYLNVYPHDHITDIFVRTDVNSNILRVDADLAADRGEDFTVGMVLREWSGDRSFKLACGLPVNGNSVEFIFDYSGIKDEIRQWWPDSPELYYIDVILHSGNEIVDVKTARFGFKSFEVRGKQFYLNGTPINLRNDSWHYMGFAYQNEEYARLWYKMARDANVNCIRLHAQVYPEFFLDMADEMGMMIVDETSIWASHCEFHYSMEFVENGKKHIKRMIERDRNHPSIIIWSVENECIMAYRVSADDGVKDENELNERLFLLAEYAGSLDPTRPVSGDGSQDMGGRLDVYSLHYPGKKGPENVNKPVTIGEMGSLYYATPDCVCNQYGEKTYLSFDGRLEAIGRELFENLKHERKWAAQVCVFNLVWYGLKPLPFKERIINYPDLSLPGVKPTRTGPYISTLNAAYDDSLPEYIPNTVFEWVRQAYLPERFFFEEGRSRYYNGEAGAKKISVFNDSFEEKEYILEWQMEQKGEILGSGNKSVLVNPAGYEELDIEFDLPAADSIERLSLRILMKFRDNIVFEDVCSIKVYNKNHIFSFMGGFGKVGILGGSRLDANEFFEKSGIETVDGLTQGIDIYLLEECTEEAAAGLTWACCSVLDLLPEKHGFKSWLSHGSAENAFLNVDDRTLMENLEEEDLSNWGNGYLCNNTFQDNLCVSAFNLFCTGKGIPLILDVKNGKARQLVSTIPLLKWAAEEPAALVLLSNLIAYAAQTGKTEAHECVLVSKKDSDMHRSFENMGIDFTLAEVKNRDQIRSLREVKLLVADGSCRLDYLDEIMPYNAEQILLCNFDEATLPDSLKGYIEVVEKPLYQLIKAGKDNALTDGIHAGDLYGLEAGQETVICKRPFLIKDDRKVKGLLKNADLNWRMWNFQGEDRKTVSILRSEQETKTPLYGLAETHINTVKVILGQIDMSYANRKLERLASRFFLQYGTYSKL
B2: (Saccharophagus degradans 2-40) (protein)
chain: MVVNTDITQWSLTKTNANGAQTPADIIPLQQWLAVPVPGTVAQAVGDAGPQEDLEQFDWWYTAQFPLPKTGKRTYLQCDGLATLSEVWVNDQQVLYSQSMFENHKLDITDYLQADNTLAIVFKALAPHLAERRARPQWKTNLVDNQNLRWFRTSLLGRMPGWTPPVKAIGPWRDISIVSVAKFDLVECTVFSEVDEALNGKVHINLELDFIDAKLAADPQIQFLLDGKIYPITAKPIKGGGAFIDTEIAIEQPQLWWPHTHGEPYLHAYKITAIIDGEVTTLTEGKLGFKRVTAANQTNQLALEVNNNKIFCRGACWATPNITSLNASKQEYRHLLKLLVDAGANMVRIGGTMVYEHDDFYALCDELGILVWQDFMFANMDYPFADEDFSKLVAKEVRQQITRLKQTASIAVFCGNSEMQQQAAMMGMEQTQWANALFDTFITQKLEEQQLTLPYFTSSPCEGGLPFHTDAGLTHYYGVGAYKLMPDHFTVREVGFTSECLGFSHIPVTASLKQAFESPYPATHTPSWKAGIPRDNSAGWDFEDIRNFYLEKIFGVVADTLRYSDPETYFKLATIATAEMVSSVYSIWRASISNCNGALAWFYQDIVAGAGWGIVDSFARPKAAYYFLKRVWQPQQVLLINNSLNGYTLEVQNETAHTLQAQLNIVLVGLSDNIVAEHTQEITLAANSVGTHKLDTVFGRFMDATHAYKFGRQTIYAVVAELRNESGELISQAVSFPGCRRINTGAGEITGSITSDSDNESVVTLTPSVFVEYACLESKTTQFSDNYTCMLPGKTYSFKACEQIKSVHVSTLNLQKEFRVT
B3: (Zobellia galactanivorans) (protein)
chain: QTEKVDLPGEERMLLSGNWKFHAIYGEGSNYIDISETLEDIVIDNTDKDRVSVKGDWKTRSEGERGSGFLGTDYLQRDFKSGESDQNYVRYRPELPESGFYEAFVRFPFASHLTAEVNVNHAQGITAAYFNQRNRCDQWLSLGVFSFDKTLDSYVEVTAITASTVVADAVMFRPVSKEKMEEADIEKSSVFQVDFDDSNWKDLRVPGHWGMLNAYSNYTGKGWYRKTFELPKNWKSVSNERIRLKFDAVYHIARVFLNGELVGLHQGGFTPFEFDITDKLNYNGQNVLAVEADNNALVGATWNWGGIIREVHLIKNNDVRISYQYIHADPDLKKGSANLKLKVRIKNSSTRQRTVLLAAHIEEASSPVDLTYKVKVPANSTQEIQLATTLPATDVKLWHFDTPNLYHLTTTISENGQVLDTQKDRFGIRKIELTDSQLILNGEPVRLSGFNRVSDHRYWGSSEPQYLIDKDVDLMKNAGANFMRIMHGTQNKKLMDRCDEKGILIFEEVNVRELTNPEFTPPHYPLAKQWLKEMIERDVNHPSIIGWSVGNELKDHFDYAKETIDYVKKELDPYRLVTCVSNSGWRDSATPEKDPNTLVDIIMHNLYPFQGTPDKVFKTLRAKWPDKPIFISEYGIKPMATTSLDGDIPELSEWNDHLRGKNTYVIGASLWTFNDYRSGYAATSPEENRVWGLVNTWRQKRKLYHRIQKENSPLADLKIDGIDLKNGGAKVRITPKPVNGYPVYSLKGYTLEFTMYDKQGEILFSKTHSLPHIVPGGKPTEVAIDWQRYMTGMAQIHAAVISPNGYIRHQTSISLELPEKTSILAIEKGHGTVRVHYRPVFGADTYYVAYADGKGLERKSDTSTTHSIEIKDLDPEEEYAFSVIAQNSKGKSVPSGTRTTKANADVLPPMIWDAFLSDGKLVVGYSGAPDDVEYIVKYGLRDSYFPYKNSTRTKGMTVIDFEGDDPHFVSIKKKTKTGESDWSKPIHVYTIRNKERYRN

Experiments:
[1] = target: T1, AmGH2_9 (Akkermansia muciniphila, UniProt B2UM41); test: activity screening, absorbance at […] nm; assay type: biochemical
T1 construct: gene Amuc_1667

[2] = test system: T2, BfGH2_9
T2 construct: gene BF638R_1918

[3] = substrate: O=[N+]([O-])c1ccc(O[C@@H]2O[C@H](CO)[C@H](O)[C@H](O)[C@H]2O)cc1; test: purified protein

T1 sequence (B2UM41 entry or part of it): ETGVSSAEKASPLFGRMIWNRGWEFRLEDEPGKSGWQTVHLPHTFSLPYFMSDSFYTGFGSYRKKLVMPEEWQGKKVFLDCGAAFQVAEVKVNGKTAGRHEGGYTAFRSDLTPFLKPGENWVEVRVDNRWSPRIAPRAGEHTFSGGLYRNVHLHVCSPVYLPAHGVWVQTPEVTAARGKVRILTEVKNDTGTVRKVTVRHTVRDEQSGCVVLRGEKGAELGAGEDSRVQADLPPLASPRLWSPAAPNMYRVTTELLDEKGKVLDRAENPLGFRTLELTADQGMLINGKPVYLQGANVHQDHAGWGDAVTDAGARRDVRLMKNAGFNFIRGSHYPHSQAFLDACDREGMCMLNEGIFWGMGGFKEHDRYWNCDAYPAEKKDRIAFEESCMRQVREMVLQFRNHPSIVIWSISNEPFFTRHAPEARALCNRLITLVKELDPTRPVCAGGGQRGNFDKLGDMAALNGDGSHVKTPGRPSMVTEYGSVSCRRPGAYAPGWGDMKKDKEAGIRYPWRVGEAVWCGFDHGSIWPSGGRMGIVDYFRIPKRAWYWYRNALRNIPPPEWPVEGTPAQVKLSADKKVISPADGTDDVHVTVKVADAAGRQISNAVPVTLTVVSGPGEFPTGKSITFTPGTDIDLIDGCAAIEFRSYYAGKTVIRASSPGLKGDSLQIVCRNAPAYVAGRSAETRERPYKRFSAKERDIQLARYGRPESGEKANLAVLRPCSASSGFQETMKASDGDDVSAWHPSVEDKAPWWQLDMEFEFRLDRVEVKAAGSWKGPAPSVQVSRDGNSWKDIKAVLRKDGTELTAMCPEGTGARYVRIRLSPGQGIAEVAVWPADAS
T2 sequence (E1WVB9 30-864 limits assumed): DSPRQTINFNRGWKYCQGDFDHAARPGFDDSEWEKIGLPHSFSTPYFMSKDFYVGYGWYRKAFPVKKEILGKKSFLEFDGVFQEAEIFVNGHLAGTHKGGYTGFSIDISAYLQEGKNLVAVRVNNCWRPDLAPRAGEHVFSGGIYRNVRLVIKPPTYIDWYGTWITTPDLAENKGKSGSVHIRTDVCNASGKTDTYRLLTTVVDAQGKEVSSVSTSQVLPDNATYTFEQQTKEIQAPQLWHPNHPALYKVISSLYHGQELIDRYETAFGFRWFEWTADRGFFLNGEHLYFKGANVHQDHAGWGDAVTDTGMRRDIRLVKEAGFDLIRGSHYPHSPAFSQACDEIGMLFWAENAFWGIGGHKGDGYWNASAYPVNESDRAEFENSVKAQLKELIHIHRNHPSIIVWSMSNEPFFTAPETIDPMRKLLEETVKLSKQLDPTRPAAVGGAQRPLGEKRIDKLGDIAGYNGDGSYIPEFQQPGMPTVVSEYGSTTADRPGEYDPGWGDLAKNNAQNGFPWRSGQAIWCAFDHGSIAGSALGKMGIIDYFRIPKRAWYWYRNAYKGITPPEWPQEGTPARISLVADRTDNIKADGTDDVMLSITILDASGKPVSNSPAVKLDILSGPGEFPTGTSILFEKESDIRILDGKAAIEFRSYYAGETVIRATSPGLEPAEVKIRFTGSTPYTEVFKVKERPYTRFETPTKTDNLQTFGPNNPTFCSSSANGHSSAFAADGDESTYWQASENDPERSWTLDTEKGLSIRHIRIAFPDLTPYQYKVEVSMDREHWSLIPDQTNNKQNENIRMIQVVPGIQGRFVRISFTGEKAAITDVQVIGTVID

| Molecule | Km ([3]; 40.0 °C) [µM] | kcat ([3]; 40.0 °C) [s⁻¹] | kcat/Km ([3]; 40.0 °C) [M⁻¹ s⁻¹] | also measured |
| --- | --- | --- | --- | --- |
| O=[N+]([O-])c1ccccc1O[C@@H]1O[C@H](CO)[C@H](O)[C@H](O)[C@H]1O [oNP-β-D-Galp] | – | – | – | activity screening, absorbance at 405 nm [1]: All the enzymes also displayed activity on oNP-β-D-Galp (data not shown); activity screening, absorbance at 405 nm [2]: All the enzymes also displayed activity on oNP-β-D-Galp (data not shown) |
| B1 | 40 ± 1.2 | 0.0233 | 586 | – |
| B2 | 64 ± 12.6 | 0.02 | 306 | – |
| B3 | – | – | – | Km [3]: 67 ± 8.3 µM; kcat [3]: 0.0133 s⁻¹; kcat/Km [3]: 204 M⁻¹ s⁻¹ |
